From the RNAGym collection of RNA variant scans (doi:10.1073/pnas.2313332121) come the findings set out here.

B1: TPR 5TU (parent)
chain: GGAUCUUCUCGAUCUAACAAAAAAGACAAAUCUGCCACAAAGCUUGAGAGCAUCUUCGGAUGCAGAGGCGGCAGCCUUCGGUGGCGCGAUAGCGCCAACGUUCUCAACUAUGACACGCAAAACGCGUGCUCCGUUGAAUGGAGUUUAUCAUG

Variants at the floor of the assay were thinned out.

Variants of B1 are the subject of the data set. Briefly: polymerase ribozyme fitness, log enrichment relative to wild type (log ratio); higher = more active; in vitro selection for triplet polymerase activity. Put shortly:
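For each subunit of a heterodimeric triplet polymerase ribozyme, a mutant library was built by PCR and transcribed, then taken through a single in vitro selection round in triplicate. Selection involved annealing to a biotinylated primer, the partner subunit and triplets, incubation frozen at −7 °C, gel excision of extended constructs, capture on streptavidin beads and RT-PCR. Genotypes were retained after Illumina sequencing of inputs and outputs only with ≥10 input reads and ≥1 read in each output. Fitness is defined as the logarithm of a genotype's enrichment relative to wild-type enrichment, using inverse-variance-weighted averages across replicates, with the logarithm taken to base 2.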
Turning to GGAUCUUCUCGAUCUAACAAAAAAGACAAAUCUGCCACAAAGCUUGAGAGCAUCUUUGGAUGCAGAGGCGGCAGCCUUCGGUGGCGCGAUAGCGGCAACGUUCUCAACUAUGACACGCAAAACGCGCGCUCCGUUGAAGGGGGUUUAUCAUG [C57U C95G U127C U139G A142G], the “polymerase ribozyme fitness (log ratio)” value was -4.04.

Consider GGAUCUUCUCGAUCUAACAAAAAAGACAAAUCUGCCACAAAGCUUGAGAGCAUCUUUGGAUGCAGAGGCGGCAGCCUUCGGUGGCGCGAUAGCGUCAACGUUGUCAACUAUGACACGCAAAACGCGUGCUCCGUUGAAUGGAGUUUAUCAUG [C57U C95U C103G], for which the “polymerase ribozyme fitness (log ratio)” value was -1.87.

As for GGAUCUUCUCGAUCUAACAAAAAAGACAAAUCUGCCACAAAGCUUGAGAGCAUCUUUGGAUGCAGAGGCGGCAGCCUUCGGUGGUGCGAUAGCGCCAACGUUCUCAACUAUGACACGCAAAACGCGUGCUCCGUUGAAUGGAAUUUAUCAUG [C57U C85U G143A], the “polymerase ribozyme fitness (log ratio)” value is -0.317.

With GGAUCUUCUCGAUCUAACAAAAAAGACAAAUCUGCCACAAAGCUUGAGAGCAUCUUUGGAUGCAGAGGCGGCAGCCUUCGGUGGGGCGAUAGCGCCAACGUUCUCAACUAUGACACGCAAAACGCGUGCUCCGUUGAAUGGCGUUUAUCGUG [C57U C85G A142C A150G], the “polymerase ribozyme fitness (log ratio)” value was not above -4.2.

GGAUCUUCUCGAUCUAACAAAAAAGACAAAUCUGCCACAAAGCUUGAGAGCAUCUUUGGAUGCAGAGGCGGCAGCCUUGGGUGGCGCGAUAGCGCCAACGUUCUCAACUAUGACACGCAAAACGCGUGCUCCGUUGAAUGGAGUUUAUCAUG [C57U C79G]: the “polymerase ribozyme fitness (log ratio)” value is -3.67.

In the case of GGAUCUUCUCGAUCUAACAAAAAAGACAAAUCUGCCACAAAGCUUGAGAGCAUCUUUGGAUGCAGAGGCGGCAGCCUUCGGUGGCGCGAUAGAGCCAACGUUCUCAACUAUGACACGCAAAACGCCUGCUCCGUUGAAUGGAGUUUAUCAUG [C57U C93A G126C], the “polymerase ribozyme fitness (log ratio)” value was -0.766.

With GGAUCUUCUCGAUCUAACAAAAAAGACAAAUCUGCCACAAAGCUUGAGAGCAUCUUUGGAUGCAGAGGCGGCAGCCUUCGGUGGCGGGAUAGCGCCAACGUUCUCAACUAUGACACGCAAAACGCGUGCUCCGUUGAAUGGAGUUUAUCAUG [C57U C87G], the “polymerase ribozyme fitness (log ratio)” value was not above -4.2.

As to GGAUCUUCUCGAUCUAACAAAAAAGACAAAUCUGCCACAAAGCUUGAGAGCAUCUUUGGAUGCAGAGGCGGCAGCCUUCGGUGGCGCGAUAGCGCCAACGUUCUCAACUAUGACACGCAAAACGCGUGCUCCGUUGAUUGGAGUGUAUCAUG [C57U A138U U145G], the “polymerase ribozyme fitness (log ratio)” value is -3.98.

On to GGAUCUUCUCGAUCUAACAAAAAAGACAAAUCUGCCACAAAGCUUGAGAGCAUCUUUGGAUGCAGAGGCGGCAGCCUUCGGUGGCGCGAUAGCGUCAACGUUCUCAACUAUGACACGCAAAACGCGUGCUCCGUUGAAUGGAGUUUAUCAUG [C57U C95U], for which the “polymerase ribozyme fitness (log ratio)” value was -1.55.

Regarding GGAUCUUCUCGAUCUAACAAAAAAGACAAAUCUGCCACAAAGCUUGAGAGCAUCUUUGGAUGCAGAGGCGGCAGCCUUCGGUGGCGCGAUAGCGGCAACGUUCUCAACUAUGACACGCAAAACGCGUGCUCCGUUGAAUGGAGUUUAUCAUG [C57U C95G], the “polymerase ribozyme fitness (log ratio)” value is -2.96.

As for GGAUCUUCUCGAUCUAACAAAAAAGACAAAUCUGCCACAAAGCUUGAGAGCAUCUUUGGAUGCAGAGGCGGCAGCCUUCGGUGGCGCGAUAGCGACAACGUUCUCAACUAUUACACGCAAAACGCGUGCUCCGUUGAAUGGAGUUUAUCAAG [C57U C95A G112U U151A], the “polymerase ribozyme fitness (log ratio)” value was -4.06.

Turning to GGAUCUUCUCGAUCUAACAAAAAAGACAAAUCUGCCACAAAGCUUGAGAGCAUCUUUGGAUGCAGAGGCGGCAGCCUUCGGUGGCGCGAUAGCGCGAACGUUCUCAACUAUGACACGCAAAACGCGUGCACCGUUGAAUGGAGUUUAUCAUG [C57U C96G U130A], the “polymerase ribozyme fitness (log ratio)” value was -3.15.

For GGAUCUUCUCGAUCUAACAAAAAAGACAAAUCUGCCACAAAGCUUGAGAGCAUCUUUGGAUGCAGAGGCGGCAGCCUUCGGUGGAGCGAUAGCGCCAACGUUCUCAACUAUGACACGCAAAACGCGUGCUCCCUUAAAUGGAGUUUAUCAUG [C57U C85A G133C G136A], the “polymerase ribozyme fitness (log ratio)” value was -1.86.

Turning to GGAUCUUCUCGAUCUAACAAAAAAGACAAAUCUGCCACAAAGCUUGAGAGCAUCUUUGGAUGCAGAGGCGGCAGCCUUCGGUGGCGCGAUAGCGCCAACGUUCUCAACUGUGACACGCAAAACGCGUGCUCCGUUGAAUGGAGUUUAUCAUG [C57U A110G], the “polymerase ribozyme fitness (log ratio)” value is -2.85.

As to GGAUCUUCUCGAUCUAACAAAAAAGACAAAUCUGCCACAAAGCUUGAGAGCAUCUUUGGAUGCAGAGGCGGCAGCCUUCGGUGGAGCGAUAGCGCCAACUUUCUCAACUAUGACGCGCAAAACGCGUGCUCCGUAGAAUGCAGUUUAUCAUG [C57U C85A G100U A115G U135A G141C], the “polymerase ribozyme fitness (log ratio)” value is not above -4.2.

Take GGAUCUUCUCGAUCUAACAAAAAAGACAAAUCUGCCACAAAGCUUGAGAGCAUCUUUGGAUGCAGAGGCGGCAGCCUUCGGUGGCGCGAUAGCGCCAACGUUCUCAACUAUGACACGCAAAACGCGUGCUCCGUUGAAUGGCGUUUAUCAUG [C57U A142C]: the “polymerase ribozyme fitness (log ratio)” value was -0.377.

For the variant GGAUCUUCUCGAUCUAACAAAAAAGACAAAUCUGCCACAAAGCUUGAGAGCAUCUUUGGAUGCAGAGGCGGCAGCCUUCGGUGGCGCGAUAGCGCCAACGUUCUCAACUAUGCCACGCAAAACGCGUGCUCCGUUGAAUGGAGUUUAUCAUG [C57U A113C], the “polymerase ribozyme fitness (log ratio)” value was -2.27.

In the case of GGAUCUUCUCGAUCUAACAAAAAAGACAAAUCUGCCACAAAGCUUGAGAGCAUCUUUGGAUGCAGAGGCGGCAGCCUUCGGUGGCGUGAUAGCGCCAACGUUGUCAACUAUGACACGCAAAACGCGUGCUCCGUUGAAUGGAGUUUAUCAUG [C57U C87U C103G], the “polymerase ribozyme fitness (log ratio)” value was -1.94.

GGAUCUUCUCGAUCUAACAAAAAAGACAAAUCUGCCACAAAGCUUGAGAGCAUCUUUGGAUGCAGAGGCGGCAGCCUUCGGUGGCGCGAUAGCGACCACGUUCUCAACUAUGACACGCAAAAAGCGUGCUCCGUUGAAUGGAGUUUAUCAUG [C57U C95A A97C C123A]: the “polymerase ribozyme fitness (log ratio)” value was -0.924.
